Measurements reported in US20120220489A1.
One block for each substance: values may come before it.

How the values were obtained:
[1] = target: ERK1 (p44) active (GST tagged), human, Invitrogen PV 3311 (human) (UniProt P27361); experiment: RPA, competition: +free H3 peptide 10 nM
[2] = target: ERK1 (p44) inactive (GST tagged), human, Invitrogen PV 3312 (human) (UniProt P27361); experiment: RPA, competition: +free H3 peptide 10 nM
[3] = target: ERK2 (p42), human, Biosource PHO 0104 (human) (UniProt P28482); experiment: RPA, competition: +free H3 peptide 10 nM
UniProt P28482, sequence (P28482 2-360 limits assumed): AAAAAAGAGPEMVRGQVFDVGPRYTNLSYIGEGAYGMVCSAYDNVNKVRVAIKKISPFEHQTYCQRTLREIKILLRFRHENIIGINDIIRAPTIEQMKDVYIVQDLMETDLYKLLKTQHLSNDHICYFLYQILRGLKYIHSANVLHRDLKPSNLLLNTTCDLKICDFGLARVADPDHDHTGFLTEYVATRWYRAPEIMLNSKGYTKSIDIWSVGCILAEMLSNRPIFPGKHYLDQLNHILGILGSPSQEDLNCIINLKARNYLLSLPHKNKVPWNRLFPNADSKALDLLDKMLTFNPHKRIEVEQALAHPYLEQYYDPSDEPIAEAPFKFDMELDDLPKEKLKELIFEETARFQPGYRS

[4] = target: ERK2 (p42), human, Biosource PHO 0104 (human) (UniProt P28482); experiment: RPA, competition: +free H3 peptide 100 nM
[5] = target: Histone H3 recombinant protein, calf, Roche 11 034 758 001 (calf) (UniProt P68432); experiment: RPA, competition: +free H3 peptide 100 nM
[6] = target: Histone H3 recombinant protein, human, Upstate 14-494 (human) (UniProt P68431); experiment: RPA standard curves, mean of duplicate assays
[7] = target: Histone H3-BSA 2.7x peptide-protein conjugate (bovine); experiment: RPA standard curves, mean of duplicate assays
Histone H3-BSA 2.7x peptide-protein conjugate (bovine), sequence (P02769 25-607 limits assumed): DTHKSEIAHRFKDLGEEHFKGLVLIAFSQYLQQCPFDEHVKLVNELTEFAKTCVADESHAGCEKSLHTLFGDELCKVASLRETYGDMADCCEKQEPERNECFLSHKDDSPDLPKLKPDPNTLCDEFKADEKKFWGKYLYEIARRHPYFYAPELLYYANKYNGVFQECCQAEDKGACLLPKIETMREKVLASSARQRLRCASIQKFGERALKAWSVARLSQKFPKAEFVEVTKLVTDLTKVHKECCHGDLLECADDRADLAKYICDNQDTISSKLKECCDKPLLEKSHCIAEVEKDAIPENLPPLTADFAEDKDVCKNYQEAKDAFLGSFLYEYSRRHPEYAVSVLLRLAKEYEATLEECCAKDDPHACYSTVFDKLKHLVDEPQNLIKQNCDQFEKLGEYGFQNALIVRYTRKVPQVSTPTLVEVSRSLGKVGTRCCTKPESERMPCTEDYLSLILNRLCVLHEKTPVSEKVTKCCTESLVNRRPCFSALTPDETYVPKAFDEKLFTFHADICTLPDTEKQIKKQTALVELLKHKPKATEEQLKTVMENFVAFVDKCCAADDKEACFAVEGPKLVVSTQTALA

[8] = target: ERK1 (p44) inactive (GST tagged), human, Invitrogen PV 3312 (human) (UniProt P27361); experiment: RPA standard curves, mean of duplicate assays
[9] = target: Erk1-BSA 2.7x peptide-protein conjugate (human; bovine); experiment: RPA standard curves, mean of duplicate assays
Erk1-BSA 2.7x peptide-protein conjugate (human; bovine), sequence (peptide, as listed by the source limits assumed, chain 1 of 2): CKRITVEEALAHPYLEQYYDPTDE
Erk1-BSA 2.7x peptide-protein conjugate (human; bovine), sequence (P02769 25-607 limits assumed, chain 2 of 2): as the sequence (P02769 25-607 limits assumed) above

[10] = target: pErk1/2-BSA 2.7x peptide-protein conjugate (human; bovine); experiment: RPA, 8 point dilution series of the peptide standard in buffer, assay 1
pErk1/2-BSA 2.7x peptide-protein conjugate (human; bovine), sequence (P02769 25-607 limits assumed): as above

[11] = target: pErk1/2-BSA 2.7x peptide-protein conjugate (human; bovine); experiment: RPA, normal assay
[12] = target: ERK1 (p42) active (phospho), human, Active Motif 31 152 (human) (UniProt P27361); experiment: RPA, competition: +free pErk1/2 peptide 100 nM
[13] = target: ERK1 (p44) active (GST tagged), human, Invitrogen PV 3311 (human) (UniProt P27361); experiment: RPA, competition: +free pErk1/2 peptide 100 nM
[14] = target: ERK1 (p44) inactive (GST tagged), human, Invitrogen PV 3312 (human) (UniProt P27361); experiment: RPA, competition: +free pErk1/2 peptide 100 nM
[15] = target: ERK1 (p44), human, Cell Signaling Technology 7416 (human) (UniProt P27361); experiment: RPA, competition: +free pErk1/2 peptide 100 nM
[16] = target: ERK2 (p42), human, Biosource PHO 0104 (human) (UniProt P28482); experiment: RPA, competition: +free pErk1/2 peptide 100 nM
[17] = target: Erk1-BSA 2.7x peptide-protein conjugate (human; bovine); experiment: RPA, competition: +free pErk1/2 peptide 100 nM
[18] = target: Histone H3 recombinant protein, calf, Roche 11 034 758 001 (calf) (UniProt P68432); experiment: RPA, competition: +free pErk1/2 peptide 100 nM
[19] = target: Histone H3 recombinant protein, human, Upstate 14-494 (human) (UniProt P68431); experiment: RPA, competition: +free pErk1/2 peptide 100 nM
[20] = target: Histone H3-BSA 2.7x peptide-protein conjugate (bovine); experiment: RPA, competition: +free pErk1/2 peptide 100 nM
[21] = target: pErk1/2-BSA 2.7x peptide-protein conjugate (human; bovine); experiment: RPA, competition: +free pErk1/2 peptide 100 nM
[22] = target: pRb recombinant protein, human, Active Motif 31 128 (human) (UniProt P06400); experiment: RPA, competition: +free pErk1/2 peptide 100 nM
UniProt P06400, sequence (P06400 whole entry): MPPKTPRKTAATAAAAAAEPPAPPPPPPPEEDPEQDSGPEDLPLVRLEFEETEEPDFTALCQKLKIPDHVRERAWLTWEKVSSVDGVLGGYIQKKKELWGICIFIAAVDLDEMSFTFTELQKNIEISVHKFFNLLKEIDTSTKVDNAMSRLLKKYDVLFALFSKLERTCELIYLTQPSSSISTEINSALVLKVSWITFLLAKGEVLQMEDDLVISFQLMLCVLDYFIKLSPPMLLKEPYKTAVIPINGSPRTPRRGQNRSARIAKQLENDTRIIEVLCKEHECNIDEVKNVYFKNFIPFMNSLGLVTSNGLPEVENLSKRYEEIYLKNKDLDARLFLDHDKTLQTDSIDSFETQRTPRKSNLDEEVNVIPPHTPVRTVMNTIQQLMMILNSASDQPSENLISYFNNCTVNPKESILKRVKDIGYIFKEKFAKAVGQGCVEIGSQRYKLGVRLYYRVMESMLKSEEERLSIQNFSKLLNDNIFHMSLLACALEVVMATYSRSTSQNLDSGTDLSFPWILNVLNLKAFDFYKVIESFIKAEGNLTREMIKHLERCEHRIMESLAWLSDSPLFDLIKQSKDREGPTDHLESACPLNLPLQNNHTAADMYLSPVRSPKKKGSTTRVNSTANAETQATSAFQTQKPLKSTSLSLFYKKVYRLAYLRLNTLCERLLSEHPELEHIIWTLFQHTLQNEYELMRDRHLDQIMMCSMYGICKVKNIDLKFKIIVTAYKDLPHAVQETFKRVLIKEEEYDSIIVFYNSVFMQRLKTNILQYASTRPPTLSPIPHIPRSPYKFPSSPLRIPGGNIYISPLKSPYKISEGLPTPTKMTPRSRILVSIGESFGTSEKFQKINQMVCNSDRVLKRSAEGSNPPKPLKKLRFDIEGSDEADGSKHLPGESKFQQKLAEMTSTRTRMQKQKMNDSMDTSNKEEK

[23] = target: pRb-BSA 1x peptide-protein conjugate (bovine); experiment: RPA, competition: +free pErk1/2 peptide 100 nM
pRb-BSA 1x peptide-protein conjugate (bovine), sequence (P02769 25-607 limits assumed): as the sequence (P02769 25-607 limits assumed) above

[24] = target: pErk1/2-BSA 2.7x peptide-protein conjugate (human; bovine); experiment: RPA standard curves, mean of duplicate assays
[25] = target: ERK1 (p42) active (phospho), human, Active Motif 31 152 (human) (UniProt P27361); experiment: RPA, competition: +free pErk1/2 peptide 1000 nM
[26] = target: ERK1 (p44) active (GST tagged), human, Invitrogen PV 3311 (human) (UniProt P27361); experiment: RPA, competition: +free pErk1/2 peptide 1000 nM
[27] = target: ERK1 (p44) inactive (GST tagged), human, Invitrogen PV 3312 (human) (UniProt P27361); experiment: RPA, competition: +free pErk1/2 peptide 1000 nM
[28] = target: ERK1 (p44), human, Cell Signaling Technology 7416 (human) (UniProt P27361); experiment: RPA, competition: +free pErk1/2 peptide 1000 nM
[29] = target: ERK2 (p42), human, Biosource PHO 0104 (human) (UniProt P28482); experiment: RPA, competition: +free pErk1/2 peptide 1000 nM
[30] = target: Erk1-BSA 2.7x peptide-protein conjugate (human; bovine); experiment: RPA, competition: +free pErk1/2 peptide 1000 nM
[31] = target: Histone H3 recombinant protein, calf, Roche 11 034 758 001 (calf) (UniProt P68432); experiment: RPA, competition: +free pErk1/2 peptide 1000 nM
[32] = target: Histone H3 recombinant protein, human, Upstate 14-494 (human) (UniProt P68431); experiment: RPA, competition: +free pErk1/2 peptide 1000 nM
[33] = target: Histone H3-BSA 2.7x peptide-protein conjugate (bovine); experiment: RPA, competition: +free pErk1/2 peptide 1000 nM
[34] = target: pErk1/2-BSA 2.7x peptide-protein conjugate (human; bovine); experiment: RPA, competition: +free pErk1/2 peptide 1000 nM
[35] = target: pRb recombinant protein, human, Active Motif 31 128 (human) (UniProt P06400); experiment: RPA, competition: +free pErk1/2 peptide 1000 nM
[36] = target: pRb-BSA 1x peptide-protein conjugate (bovine); experiment: RPA, competition: +free pErk1/2 peptide 1000 nM

maximum standard curve signal [1]: < 0.01 RFI
maximum standard curve signal [2]: < 0.01 RFI
maximum standard curve signal [3]: < 0.01 RFI
maximum standard curve signal [4]: < 0.01 RFI
maximum standard curve signal [5]: 0.2 RFI
mean LOD [6]: 0.156 nM
mean LOD [7]: 0.123 nM
Substance: Histone H3 antibody, Abcam ab1791

mean LOD [8]: 0.072 nM
mean LOD [9]: 0.046 nM
mean signal (standard curve) [10]: 0.01 RFI
Substance: p44/42 MAPK (Erk1/2) antibody, Biosource 44-654G

maximum standard curve signal [11]: 3.47 RFI
maximum standard curve signal [12]: 0.01 RFI
maximum standard curve signal [13]: 0.01 RFI
maximum standard curve signal [14]: 0.01 RFI
maximum standard curve signal [15]: < 0.01 RFI
maximum standard curve signal [16]: 0.01 RFI
maximum standard curve signal [17]: 0.02 RFI
maximum standard curve signal [18]: 0.01 RFI
maximum standard curve signal [19]: < 0.01 RFI
maximum standard curve signal [20]: 0.1 RFI
maximum standard curve signal [21]: 0.45 RFI
maximum standard curve signal [22]: 0.01 RFI
maximum standard curve signal [23]: 0.01 RFI
mean LOD [24]: 0.03 nM
maximum standard curve signal [25]: 0.01 RFI
maximum standard curve signal [26]: 0.01 RFI
maximum standard curve signal [27]: 0.01 RFI
maximum standard curve signal [28]: < 0.01 RFI
maximum standard curve signal [29]: 0.01 RFI
maximum standard curve signal [30]: 0.02 RFI
maximum standard curve signal [31]: 0.01 RFI
maximum standard curve signal [32]: 0.01 RFI
maximum standard curve signal [33]: 0.1 RFI
maximum standard curve signal [34]: 0.1 RFI
maximum standard curve signal [35]: 0.01 RFI
maximum standard curve signal [36]: 0.01 RFI
Substance: p44/42 MAPK phospho (pERK1/2) Thr202/Tyr204 antibody, Cell Signaling Technology #9101
